Results on 3 molecules are retold here after paper PMC7884072, “Development of antibody-dependent cell cytotoxicity function in HIV-1 antibodies” (eLife, 2021).

By Kd is commonly meant a measure of binding affinity in units of concentration. Low readings indicate higher affinity, high ones lower affinity.

Conditions in all cases: both partners purified
Experiment [1] has as its target T1, gp41 ectodomain (HIV strain C.ZA.1197MB) (HIV-1 strain C.ZA.1197MB).
T1 construct: gp41 ectodomain of HIV-1 Env, strain C.ZA.1197MB (clade C); Called monomeric in the legends; also called monomeric C.ZA.1197MB gp41 ectodomain; clade C gp41 ectodomain; source: bought: Immune Technology Corp
T1 chain: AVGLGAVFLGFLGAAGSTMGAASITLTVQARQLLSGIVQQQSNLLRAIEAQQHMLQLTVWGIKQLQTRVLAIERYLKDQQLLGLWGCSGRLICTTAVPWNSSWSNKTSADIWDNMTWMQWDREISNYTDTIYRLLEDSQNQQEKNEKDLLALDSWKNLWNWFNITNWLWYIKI
Description: BLI; Octet RED; mAb (8 µg/mL) captured on anti-human IgG Fc biosensors (ligand); monomeric gp41 ectodomain or gp120 as analyte in a series of up to six two-fold dilutions; 30°C; 1X PBS, 0.1% BSA, 0.005% Tween-20, 0.02% sodium azide; association 180 s, dissociation 180 s; double referencing; 1:1 model. A general note: Biolayer interferometry detects binding as a change in optical thickness at a sensor tip.

The target of experiment [2] is T2, gp120 (HIV strain BL035.W6M.C1) (HIV-1 strain BL035.W6M.C1).
T2 construct: gp120, the surface subunit cut from HIV-1 Env gp160, strain BL035.W6M.C1 (clade A); Called monomeric in the legends; also called monomeric BL035.W6M.C1 gp120; monomeric gp120; source: bought: Immune Technology Corp
Kind of experiment: BLI; 157-lineage naive antibodies as ligand; monomeric BL035 gp120 as analyte at 250 nM; without the double reference approach.

Experiment [3] deals with T2, gp120 (HIV strain BL035.W6M.C1). Kind of experiment: BLI; mAb lineage members captured on anti-human IgG Fc biosensors (ligand); monomeric gp41 ectodomain or BL035.W6M.C1 gp120 as analyte at 62.5 nM.

B1: 072-0VH0VK (antibody, V domains shown)
VH: QVQLVQSGAEVKKPGSSVKVSCKASGGTFSSYAISWVRQAPGQGLEWMGGIIPILGIANYAQKFQGRVTITADESTSTAYMELSSLRSEDTAVYYCARHYDDSSGFFYGAFDIWGQGTTLTVSS
VL: DIQMTQSPSSLSASVGDRVTITCRASQGISNYLAWYQQKPGKVPKLLIYAASTLQSGVPSRFSGSGSGTDFTLTISSLQPEDVATYYCQKYNSAPWTFGQGTKVEIK
notes: 072-0VH, inferred naive heavy chain variable region (VH 1-69*11, DH 4-17*01, JH 3*02); 072-0VK, inferred naive kappa variable region (VK 1-27*01, JK 1*01); Whole human IgG1, kappa (Igγ1 vector Addgene 80795, Igκ vector Addgene 80796); also called 072 lineage inferred naive mAb; inferred naive precursor of the 072 lineage; source: HEK 293F, co-transfected, purified (protein G)
B1: the Kd in experiment [1] is 0.0344 µM.

B2: 157-0VHAVK (antibody, V domains shown)
VH: QVQLVQSGAEVKKPGSSVKVSCKASGGTFSSYAISWVRQAPGQGLEWMGGIIPILGIANYAQKFQGRVTITADESTSTAYMELSSLRSEDTAVYYCARGKVSSSDWFQPIYYYYMDVWGGGTTVTVSS
VL: EIVMTQSPATLSVSPGERATLSCRASQSISSYLAWYQQKPGQAPRLLIYDASNRATGIPARFSGSGSGTDFTLTISSLEPEDFAVYYCQQRSNSLPFGQGTRLEIK
notes: Whole human IgG1, kappa; source: HEK 293F, co-transfected, purified (protein G)
Regarding B2, the binding result in experiment [2] is “no binding (tested: 250 nM)”.

B3: 105-1VH1VK (antibody, V domains shown)
VH: EVQLVESGGGLVKPGGSLRLSCAASGFSFTNAYMSWVRQAPGKGLEWVGRIKSKADDGTTDYAAPVKGRFTISRDDSKNTLYLQMNSLKTEDTAVYYCTTGVMIANQDSYYYMDVWGKGTTVAVSS
VL: not shown
notes: as for B2
As to B3, the binding result in experiment [3] is on record as “binds”.
